# Measured values from patent US20250320468A1, “New Microbial Diamine Oxidase Derived from Yarrowia Lipolytica for the Degradation of Biogenic Amines” (UNIVERSITÄT HOHENHEIM, priority 2021, published 2025).
# Several values for one entry are separate records, joined by “and”; a condition that tells them apart may be missing. Equal values may be shown once.
# B1: Yarrowia lipolytica PO1f diamine oxidase-1 (DAO-1), wild type, SEQ ID NO: 1 (Yarrowia lipolytica CLIB122) (protein)
# chain: MTPHPFDQLSVQEMESVVRVVKSNHSGKSLHLKSIGTEEPPKALMAPFLAAKRAGKNPVPPPRIAHVIYYVLEDKLVNQCWVDVPSAKVVKSEVLKKGIHPPIDPWEANEAFEAAFDHPLVKDAIKKCGVEHLIDNLTIDGWMYGCDSEIDMPRYLQMLVYCRDPKTNHQDSNMYAFPVPFVPVYDVLEKKLVRVDYCATGGDDDDAAVEGVGNYDTRPEGKNCIEHCVTNDYLPELQDKMRTDLKPYNVLQPEGPSYHIDSDGYINWQKWHFKVGFTPREGLVIHDVHYDGRSTFYRLSMSEMAVPYADPRPPLHRKMAFDFGDCGGGKCANELTLGCDCLGTIRYFDGNVCDPEGNVFTRKNVICMHEQDDGIGWKHTNYRTDVVAITRRRILVLQTILTVGNYEYIFAWHFDQSAGIQLEIRATGIVSTQLIDAGKKSKFGTIVSPGVMAASHQHIFNVRMDPAIDGHQNTVVVNDTVALPWDAKNPHGIAFENTKTPIEKSCYLDSDIQKNRYLKICNENKINPISGNPVGYKIGGLATAMLYAQPGSVSRNRAAFATHHYWVTKYKDQELFAGGVWTNQSANEVGGVQDAVARNENVRNDDVVLWHSFGLTHHPRVEDFPVMPCEIMKIHLSPNDFFTGNPSVDVPKSNQTFNRSVEVKDCRSCKI
# Tests used:
# [1] = Stability of DAO-1 in simulated intestinal fluid (SIF) with and without food matrices; type: in vitro ADME
# Experimental: The stability of DAO-1 was tested in a simulated intestinal fluid (SIF) with and without the addition of simulated food matrices. Therefore, pancreatin-containing SIF was prepared as described in the United States Pharmacopeia (USP42). Different food-matrix stock solutions (4× concentrated) were prepared as follows: 200 g/L bovine serum albumin (BSA) and 100 g/L sucrose (=food-matrix 1), 100 g/L BSA, 100 g/L whey protein isolate (WPI) and 200 g/L sucrose (=food-matrix 2) and BSA, WPI, sodium-caseinate each at 66.68 g/L and 200 g/L sucrose (=food-matrix 3). The pH of each stock solution was adjusted to 6.8 with 1 M NaOH. The freshly prepared 2× concentrated SIF, the food-matrix stock solutions as well as DAO-1 (desalted against H2Odd using PD MidiTrap G-25 columns; GE Healthcare, Chicago, USA) were individually incubated for 5 min in a thermoshaker at 37° C. Subsequently, 500 μL of 2× concentrated SIF, 250 μL of DAO-1 and 250 μL of the food-matrix stock solutions were combined and incubated at 37° C., 500 rpm in a thermoshaker. In order to test the stability of DAO-1 without the presence of stabilizing compounds, H2Odd was added instead of the food-matrix stock solution. Immediately after combining the solutions, a sample of 100 μL was taken and used for the DAO-1 activity determination using the DA-67 assay.
# [2] = Substrate selectivity of DAO-1 (DA-67 assay), cadaverine; type: biochemical; conditions: 100% = 10 mM histamine
# Experimental: (§1) The amino acids L-tryptophan, L-lysine, L-histidine, and L-arginine were also tested.
# [3] = DAO activity determination, colorimetric DA-67 enzyme assay (specific / total DAO activity); type: biochemical
# Experimental: The DAO activity was determined using the colorimetric DA-67 enzyme assay, as known in the art.
# [4] = Substrate selectivity of DAO-1 (DA-67 assay), agmatine; type: biochemical; conditions: 100% = 10 mM histamine
# Experimental: as §1
# [5] = Substrate selectivity of DAO-1 (DA-67 assay), tryptamine; type: biochemical; conditions: substrate tryptamine 1 mM; 100% = 10 mM histamine
# Experimental: as §1
# [6] = Substrate selectivity of DAO-1 (DA-67 assay), spermidine; type: biochemical; conditions: 100% = 10 mM histamine
# Experimental: as §1
# [7] = Substrate selectivity of DAO-1 (DA-67 assay), tyramine; type: biochemical; conditions: 100% = 10 mM histamine
# Experimental: as §1
# [8] = Temperature and pH profile of DAO-1 (DA-67 assay); type: biochemical
# Experimental: The influence of temperature on the enzyme activity of DAO-1 was tested under standard assay conditions, whereby the incubation temperature was varied between 2° and 47° C. The pH-dependency of the DAO-1 activity was investigated under standard assay conditions at 37° C., whereby different buffer systems (50 mM sodium phosphate buffer, pH 6.2-7.8; 50 mM PIPES, pH 7-7.5; 50 mM Tris-HCl, pH 7.2-8.5) were used. The respective buffer system was calibrated with hydrogen peroxide (0.5 to 10 nmol/mL). Analytically pure histamine was used as a substrate for the temperature and pH profiles.
# [9] = Histamine bioconversion with DAO-1 in PIPES buffer with simulated food matrix (RP-HPLC); type: biochemical; conditions: for histamine concentration after bioconversion: 0.1 nkat/mL DAO-1, 5 h
# Experimental: An amount of 5 g/L BSA and 25 g/L sucrose were added to the approach to simulate a food matrix. Additionally, catalase was added (30 nkat/mL) to remove the hydrogen peroxide. The experiment was started by the addition of 0.1 nkat/mL DAO-1 activity.
# [10] = Substrate selectivity of DAO-1 (DA-67 assay), putrescine; type: biochemical; conditions: 100% = 10 mM histamine
# Experimental: as §1
# [11] = substrate: NCCc1c[nH]cn1; test: purified protein, by the assay type
# [12] = Substrate selectivity of DAO-1 (DA-67 assay), histamine; type: biochemical
# Experimental: as §1
# [13] = Michaelis-Menten kinetics of DAO-1 in PIPES buffer; type: biochemical; conditions: read-out: Km for histamine; PIPES buffer 25 mM pH 7.2, 37° C
# Description: Kinetic investigations were done within the initial reaction velocity.
# [14] = Substrate selectivity of DAO-1 (DA-67 assay), amino acids; type: biochemical; conditions: L-tryptophan, L-lysine, L-histidine, L-arginine at 1, 10 and 50 mM
# Experimental: as §1
# [15] = pH-stability of DAO-1 in buffer systems at 37° C; type: physicochemical
# Experimental: Consequently, DAO-1 was incubated for 5 h at 37° C. and stirred at 400 rpm in the following buffer systems: 20 mM MES (pH 5.5), 20 mM sodium phosphate buffer (pH 6.2, 7.0, 7.2, 7.8, 8.0), 20 mM PIPES (pH 7.0, 7.2, 7.5) and 20 mM Tris-HCl (pH 6.8, 7.5, 8.2). Afterwards, the residual enzyme activity of DAO-1 was determined under standard assay conditions and compared to the DAO-1 activity applied initially.
# [16] = bioreactor cultivation, crude extract
# [17] = other: apparent, histamine 0.5-50 mM, PIPES buffer (25 mM; pH 7.2), 37° C., pH 7.2
molecule,measurement,setting,value
B1,half-life period,"[1]; food-matrix SIF 1 (50 g/L BSA, 25 g/L sucrose), 37° C",around 15 min
same,half-life period,"[1]; food-matrix SIF 2 (25 g/L BSA, 25 g/L WPI, 50 g/L sucrose), 37° C",around 30 min
same,initially applied DAO-1 activity available over 90 min,"[1]; food-matrix SIF 3, 37° C",around 43%
same,residual DAO-1 activity,"[1]; food-matrix SIF 3, 90 min, 37° C",8±0.1%
same,half-life period,"[1]; pure SIF (pancreatin), 37° C",less than 5 min
same,DAO-1 activity [%],[2]; substrate cadaverine 1 mM,29.6 ± 0.4%
same,DAO-1 activity [%],[2]; substrate cadaverine 10 mM,87.3 ± 1.3%
same,DAO-1 activity [%],[2]; substrate cadaverine 50 mM,64.5 ± 1.0%
same,increase of specific DAO-1 activity compared to the recent work,[3]; 5 L scale purified preparation,3 fold
same,specific DAO-1 activity,"[3]; 5 L scale, stirred media mill, ammonium sulfate precipitation and HIC",15 μkat/gProtein
same,specific DAO-1 activity of crude extract relative to partially purified porcine DAO,[3]; 1301 vs 81 nkat/gProtein,around 16 times
same,specific DAO-1 activity,"[3]; DAO-1 produced in Komagataella phaffii, fed-batch bioreactor",2500 nkat/gProtein
same,specific DAO-1 activity relative to specific DAO activity obtained from porcine kidney,[3]; K. phaffii DAO-1 after assumed 7.2-fold purification,more than 200 fold
same,specific DAO-1 activity,[3]; after (NH4)2SO4 precipitation and hydrophobic interaction chromatography,4738±31 nkat/gProtein
same,specific DAO-1 activity,"[3]; after cell disruption (high-pressure homogenizer) of 10 g wet yeast biomass, before purification",660±28 nkat/gProtein
same,increase in specific DAO activity compared with extracted and purified DAO from porcine kidney,[3]; after chromatographic purification,~60 fold
same,increase in specific DAO activity compared with DAO extraction from porcine kidney,[3]; [16],145 fold
same,increase in specific DAO activity compared with native DAO-1 production in Y. lipolytica PO1f,[3]; [16],93 fold
same,specific DAO-1 activity,"[3]; crude extract, bioreactor cultivation of Y. lipolytica PO1f_axp_dao-1, final (96 h)",1301±54.2 nkat/gProtein
same,DAO-1 activity [%],[4]; substrate agmatine 1 mM,31 ± 1.1%
same,DAO-1 activity [%],[4]; substrate agmatine 10 mM,30.6 ± 2.7%
same,DAO-1 activity [%],[4]; substrate agmatine 50 mM,7.4 ± 2.3%
same,DAO-1 activity [%],[5],166.1 ± 0.8%
same,DAO-1 activity [%],[6]; substrate spermidine 1 mM,2.1 ± 1.6%
same,DAO-1 activity [%],[6]; substrate spermidine 10 mM,3.8 ± 0.9%
same,DAO-1 activity [%],[6]; substrate spermidine 50 mM,2.1 ± 1.3%
same,DAO-1 activity [%],[7]; substrate tyramine 1 mM,303.9 ± 4.4%
same,DAO-1 activity [%],[7]; substrate tyramine 10 mM,246.8 ± 3.6%
same,DAO-1 activity [%],[7]; substrate tyramine 50 mM,66.4 ± 1.0%
same,relative DAO-1 activity,"[8]; 42° C, relative to maximum at 40° C",76±1%
same,relative DAO-1 activity,"[8]; 45° C, relative to maximum at 40° C",31.7±1%
same,DAO-1 activity compared to the maximal activity in Tris-HCl at pH 7.2,[8]; PIPES buffer,92.2±3.9%
same,temperature of maximal DAO-1 activity,"[8]; PIPES buffer 25 mM pH 7.2, histamine substrate",40 °C
same,pH of maximal DAO activity,"[8]; Tris-HCl buffer (50 mM), 37° C, histamine substrate",7.2
same,Maximal DAO-1 activity (100%),[8]; pH/buffer profile at 37° C (FIG. 8),1.84±0.03 nkat/mL
same,Maximal DAO-1 activity (100%),"[8]; temperature profile, PIPES 25 mM pH 7.2 (FIG. 7)",1.88±0.01 nkat/mL
same,relative DAO-1 activity,[8]; temperature range between 3° and 42° C,greater than 50%
same,residual activity of DAO-1 after bioconversion,"[9]; after 5 h bioconversion at 37° C, determined by RP-HPLC",57.4±1.3%
same,histamine concentration at start of stagnation,[9]; around 4 h,43.5±0.76 mg/L and 0.39±0.01 mM
same,histamine concentration after bioconversion,"[9]; initial 1.35 mM, 37° C",0.34 ± 0.01 mM
same,histamine concentration after bioconversion,"[9]; initial 150 mg/L, 37° C",37.4±0.65 mg/L and 37.4±+0.65 mg/L
same,remaining histamine relative to initial (100%),"[9]; initial 150 mg/L, 5 hours, 37° C",25±1.7%
same,DAO-1 activity [%],[10]; substrate putrescine 1 mM,29.8 ± 0.4%
same,DAO-1 activity [%],[10]; substrate putrescine 10 mM,92.9 ± 1.4%
same,DAO-1 activity [%],[10]; substrate putrescine 50 mM,77.9 ± 1.1%
same,Km,[11]; [17],2300 ± 200 µM
same,Vmax,[11]; [17],9.09±0.37 nkat/mg
same,Km,"[11]; other: hydrolyzed food-matrix SIF 3 (pancreatin, 90 min at 37° C.), pH 6.8, histamine 1.56-50 mM, pH 6.8",4200 ± 500 µM
same,DAO-1 activity [%],"[12]; substrate histamine 1 mM, 100% = 10 mM histamine",45.1 ± 0.7%
same,DAO-1 activity [%],"[12]; substrate histamine 10 mM, reference 100%",100 ± 1.5%
same,DAO-1 activity [%],"[12]; substrate histamine 50 mM, 100% = 10 mM histamine",74.4 ± 1.1%
same,Km,[13],2300 µM
same,DAO-1 activity towards amino acids,[14],did not show any activity
same,residual DAO-1 activity,"[15]; 37° C, 5 h, pH range from 6.2 to 7.5",more than 60%
same,residual DAO-1 activity,"[15]; 37° C, 24 h",53.7±1.2%
same,residual DAO-1 activity,"[15]; PIPES buffer (20 mM) pH 7.0, 37° C, 5 h",89.5±0.8%
